From patent publication US20230212319A1, “NOVEL ANTIGEN BINDING DOMAINS AND SYNTHETIC ANTIGEN RECEPTORS INCORPORATING THE SAME” (University of Southern California, priority 2020, published 2023)

B1: 22294 (protein)
chain: MALPVTALLLPLALLLHAARPQLQLQESGPGLVKPSETLSLTCTVSGDSISSGDYYWGWIRQPPGKGLEWIGHIYYSGVTYYNPSLKSRVTISVDTSRNQFSLKLSSVTAADTAVYYCTREDSSNWRSRGQGTLVTVSSLEGSIPEDTFFPSPESSCDVKLVEKSFETDTNLNFQNLSVIGFRILLLKVAGFNLLMTLRLWSSRAKRSGSGVKQTLNFDLLKLAGDVESNPGPTSATMDWIWRILFLVGAATGAHSEFMDPDLEIRAAFLRQRNTALRTEVAELEQEVQRLENEVSQYETRYGPLGGGKTRGSGRADCGFTSESYQQGVLSATILYEILLGKATLYAVLVSALVLMAMVKRKDSRGRAKRSGSGATNFSLLKQAGDVEENPGPSRGHMTEYKPTVRLATRDDVPRAVRTLAAAFADYPATRHTVDPDRHIERVTELQELFLTRVGLDIGKVWVADDGAAVAVWTTPESVEAGAVFAEIGPRMAELSGSRLAAQQQMEGLLAPHRPKEPAWFLATVGVSPDHQGKGLGSAVVLPGVEAAERAGVPAFLETSAPRNLPFYERLGFTVTADVEVPEGPRTWCMTRKPGA
B2: CD8SP-CD22-FHVH-24-PSMA71v2-chVH-Myc-CD8TM-BBZ-T2A-PAC (protein)
chain: MALPVTALLLPLALLLHAARPQLQLQESGPGLVKPSETLSLTCTVSGDSISSGDYYWGWIRQPPGKGLEWIGHIYYSGVTYYNPSLKSRVTISVDTSRNQFSLKLSSVTAADTAVYYCTREDSSNWRSRGQGTLVTVSSLESGGGGSFEVQLVESGGGVVQPGRSLRLSCAASGFSFSGYGMHWVRQAPGKGLEWVAYISYDGSNKYYADSVKGRFTISRDNSKNTLYLQMNSLRAEDTAVYYCAKDPAWGLRLGESSSYDFDIWGQGTMVTVSSTREQKLISEEDLAKPTTTPAPRPPTPAPTIASQPLSLRPEACRPAAGGAVHTRGLDFACDIYIWAPLAGTCGVLLLSLVITLYCKRGRKKLLYIFKQPFMRPVQTTQEEDGCSCRFPEEEEGGCELRVKFSRSADAPAYQQGQNQLYNELNLGRREEYDVLDKRRGRDPEMGGKPRRKNPQEGLYNELQKDKMAEAYSEIGMKGERRRGKGHDGLYQGLSTATKDTYDALHMQALPPRSSGSGEGRGSLLTCGDVEENPGPHMTEYKPTVRLATRDDVPRAVRTLAAAFADYPATRHTVDPDRHIERVTELQELFLTRVGLDIGKVWVADDGAAVAVWTTPESVEAGAVFAEIGPRMAELSGSRLAAQQQMEGLLAPHRPKEPAWFLATVGVSPDHQGKGLGSAVVLPGVEAAERAGVPAFLETSAPRNLPFYERLGFTVTADVEVPEGPRTWCMTRKPGA
B3: 22045 (protein)
chain: MALPVTALLLPLALLLHAARPQLQLQESGPGLVKPSETLSLTCTVSGDSISSGDYYWGWIRQPPGKGLEWIGHIYYSGVTYYNPSLKSRVTISVDTSRNQFSLKLSSVTAADTAVYYCTREDSSNWRSRGQGTLVTVSSLEGSPIKTDVITMDPKDNCSKDANDTLLLQLTNTSAYYMYLLLLLKSVVYFAIITCCLLRRTAFCCNGEKSRAKRSGSGATNFSLLKQAGDVEENPGPTSMDWIWRILFLVGAATGAHSFEVQLVESGGGVVQPGRSLRLSCAASGFSFSGYGMHWVRQAPGKGLEWVAYISYDGSNKYYADSVKGRFTISRDNSKNTLYLQMNSLRAEDTAVYYCAKDPAWGLRLGESSSYDFDIWGQGTMVTVSSTRDKTHTCPPCPAIPEDTFFPSPESSCDVKLVEKSFETDTNLNFQNLSVIGFRILLLKVAGFNLLMTLRLWSSRAKRSGSGVKQTLNFDLLKLAGDVESNPGPSRGHMTEYKPTVRLATRDDVPRAVRTLAAAFADYPATRHTVDPDRHIERVTELQELFLTRVGLDIGKVWVADDGAAVAVWTTPESVEAGAVFAEIGPRMAELSGSRLAAQQQMEGLLAPHRPKEPAWFLATVGVSPDHQGKGLGSAVVLPGVEAAERAGVPAFLETSAPRNLPFYERLGFTVTADVEVPEGPRTWCMTRKPGA
B4: 22053 (protein)
chain: MALPVTALLLPLALLLHAARPQLQLQESGPGLVKPSETLSLTCTVSGDSISSGDYYWGWIRQPPGKGLEWIGHIYYSGVTYYNPSLKSRVTISVDTSRNQFSLKLSSVTAADTAVYYCTREDSSNWRSRGQGTLVTVSSLEDKTHTCPPCPAPIKTDVITMDPKDNCSKDANDTLLLQLTNTSAYYMYLLLLLKSVVYFAIITCCLLRRTAFCCNGEKSRAKRSGSGATNFSLLKQAGDVEENPGPTSMDWIWRILFLVGAATGAHSFEVQLVESGGGVVQPGRSLRLSCAASGFSFSGYGMHWVRQAPGKGLEWVAYISYDGSNKYYADSVKGRFTISRDNSKNTLYLQMNSLRAEDTAVYYCAKDPAWGLRLGESSSYDFDIWGQGTMVTVSSTRDKTHTCPPCPAIPEDTFFPSPESSCDVKLVEKSFETDTNLNFQNLSVIGFRILLLKVAGFNLLMTLRLWSSRAKRSGSGVKQTLNFDLLKLAGDVESNPGPSRGHMTEYKPTVRLATRDDVPRAVRTLAAAFADYPATRHTVDPDRHIERVTELQELFLTRVGLDIGKVWVADDGAAVAVWTTPESVEAGAVFAEIGPRMAELSGSRLAAQQQMEGLLAPHRPKEPAWFLATVGVSPDHQGKGLGSAVVLPGVEAAERAGVPAFLETSAPRNLPFYERLGFTVTADVEVPEGPRTWCMTRKPGA
B5: SEQ ID NO: 22286: engineered NKG2D-YA domain attached to the N-terminus of the IgCL fragment of a SAR with Ab-TCR backbone (protein)
chain: MALPVTALLLPLALLLHAARPACLFNQEVQIPLTESYCGPCPKNWICYKNNCYQFFDESKNWYESQASCMSQNASLLKVYSKEDQDLLKLVKSAHWMGLVHIPTNGSWQWEDGSILSPNLLTIIEMQKGDCALYASSFKGYIENCSTPNTYICMQRTVLEGQPKANPTVTLFPPSSEELQANKATLVCLISDFYPGAVTVAWKADGSPVKAGVETTKPSKQSNNKYAASSYLSLTPEQWKSHRSYSCQVTHEGSTVEKTVAPTECSPIKTDVITMDPKDNCSKDANDTLLLQLTNTSAYYMYLLLLLKSVVYFAIITCCLLRRTAFCCNGEKSRAKRSGSGATNFSLLKQAGDVEENPGPTSATMDWIWRILFLVGAATGAHSGPQVQLQESGGGLAQAGGSLRLSCAASGRTFSMGWFRQAPGKEREFVAAITYSGGSPYYASSVRGRFTISRDNAKNTVYLQMNSLKPEDTAVYYCAANPTYGSDWNAENWGQGTQVTVSSGSGGGGSGGGGSGGGGSFEQVQLQQPGAELVKPGASVKMSCKASGYAFSSYWINWMKQKPGQGLEWIGQIYPGDGDTNYNGKFKGRATLTADTSSSTAYMQLSSLTSEDSAVYFCARSITTVVGCAMDYWGQGTSVTVSSTRASTKGPSVFPLAPSSKSTSGGTAALGCLVKDYFPEPVTVSWNSGALTSGVHTFPAVLQSSGLYSLSSVVTVPSSSLGTQTYICNVNHKPSNTKVDKRVEPKSCEVKTDSTDHVKPKETENTKQPSKSCHKPKAIVHTEKVNMMSLTVLGLRMLFAKTVAVNFLLTAKLFFLRAKRSGSGVKQTLNFDLLKLAGDVESNPGPSRGHMTEYKPTVRLATRDDVPRAVRTLAAAFADYPATRHTVDPDRHIERVTELQELFLTRVGLDIGKVWVADDGAAVAVWTTPESVEAGAVFAEIGPRMAELSGSRLAAQQQMEGLLAPHRPKEPAWFLATVGVSPDHQGKGLGSAVVLPGVEAAERAGVPAFLETSAPRNLPFYERLGFTVTADVEVPEGPRTWCMTRKPGA

Assays:
LNCaP cells = experiment: JNG assay, co-culture with LNCaP cells; type: cell-based; conditions: for NFAT-GFP ASSAY: LNCaP: co-culture with LNCaP
Procedure: Cellular supernatant is collected and assayed for the induction of cytokines (e.g., IL2).
JNG (Jurkat cells expressing EGFP under an NFAT promoter) were infected with lentiviral vectors encoding different single chain and multi-chain SARs by spinfection in the presence of 8 µg/ml of Polybrene® (Sigma, Catalog no. H9268). The Jurkat-NFAT-GFP cells are engineered in such a way that the IL-2 promoter, which carries NFAT binding sites, is cloned upstream of the GFP gene. These cells have been used to study signaling via TCR and CAR. The different SARs were stably expressed in Jurkat NFAT-GFP cells by lentiviral mediated gene transfer, followed by selection with puromycin or blasticidin. No drug selection was used in case the construct lacked an antibiotic resistance gene. The SAR-expressing Jurkat-NFAT-GFP cells were cocultured with the target cells at E:T ratio of approximately 1:2 for approximately 4 hours to 18 hours. When the interaction between SIRs and their target antigen results in activation of the NFAT pathway, GFP expression is induced. […] GFP expression was monitored by FACS analysis. The Jurkat-NFAT-GFP (parental) cells were used as control. The structure of different constructs can be determined based on their names. For example, the construct CD8SP-CD19-hu-mROO5-1-vL-[hTCRa-C SDVP]-F-F2A-Spe-IgHSP-Apa-CD20-vHH-2HCD25-G4S-CDl9-hu-mROO5-1-vH-Mlu-[hTCRb-KACIAH]-F-P2A-PAC has the following modules from 5′ to 3′ direction: a CD8 signal peptide (CD8SP), the CD19 targeting hu-mROO5-1 vL fragment (CD19-hu-mROO5-1), Xho1 cloning site, human TCRa constant chain containing CSDVP mutations (hTCRa-CSDVP), Furine cleavage site (F), F2A ribosomal skip sequence (F2A), SpeI site, human IgH signal peptide (IgHSP), Apa I restriction enzyme site, camelid CD20-2HCD25-VHH module targeting CD20, BamHI restriction enzyme site, Glycinex4-serine linker (G4S), BstI restriction enzyme site, CD19-hu-mROO5-1-vH fragment targeting CD19, Mlu I restriction enzyme site, human TCRb constant chain containing KACIAH mutations ([hTCRb-KACIAH]), Furine cleavage site (F), P2A ribosomal skip sequence and Puromycin resistance gene (PAC). The sequence of the other constructs in the table can be similarly determined from their names and by referring to the different Tables of this disclosure that provide the names and SEQ ID NO of the different modules. Alternatively, the composition and modular architecture of the different SAR constructs can be determined from their sequences by bioinformatics tools, including using nucleic acid and amino acids homology searches. A SAR is considered positive in the assay in case the SAR expressing Jurkat-NFAT-GFP cells show greater % GFP positive cells when cultured with the target cell line as compared to parental Jurkat-NFAT-GFP cells. The signs +/-, +, 2+ etc. after the name of the cell lines indicate the relative degree of positivity on the Jurkat-NFAT-GFP assay as measured by the % GFP positive cells after culture of the SAR expressing Jurkat-NFAT-GFP cells with that cell line above the % GFP cells observed in parental Jurkat NFAT-GFP cells serving as controls. In general, the number +/-, +, 2+, 3+, 4+, 5+ refer to approximately 5%, 10%, 20%, 30%, 40% and 50% GFP positive cells. The % of GFP induction in the above assay is dependent not only the relative strength of the SAR but also, among other factors, on the relative level of expression of the SAR in the JNG cells and the relative level of expression of the target antigen in the target cell line. To control for the difference in gene transduction efficiency of the different SAR constructs, the experiment was conducted with JNG cells transduced with SAR constructs co-expressing a drug resistance gene (e.g., puromycin or PAC) followed by drug selection to generate a stable population of SAR-expressing cells. […]

RAJI cells = experiment: JNG assay, co-culture with RAJI cells; type: cell-based; conditions: co-culture with RAJI cells
Summary of the method: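 Jurkat-NFAT-GFP (JNG) cells stably expressing SAR constructs via lentiviral transduction and puromycin/blasticidin selection were cocultured with target cells at E:T ~1:2 for ~4–18 h. NFAT-driven GFP was measured by FACS versus parental JNG cells; scores +/- to 5+ denote ~5–50% GFP-positive cells.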

Molecule | GFP induction / activity (RAJI cells) | NFAT-GFP ASSAY: LNCaP (LNCaP cells) | further results
B1 | – | – | NFAT-GFP ASSAY: LNCaP with PSMA-USC76-chVH-EZIP (LNCaP cells; LNCaP in presence of SAR adaptor PSMA-USC76-chVH-EZIP): +1
B2 | able to effectively induce GFP | – | GFP induction (relative degree of positivity) (LNCaP cells; PSMA-expressing LNCaP cells): +5.5
B3 | – | +/- (refer to approximately 5%, 10%, 20%, 30%, 40% and 50% GFP positive cells) | –
B4 | – | + (refer to approximately 5%, 10%, 20%, 30%, 40% and 50% GFP positive cells) | –
B5 | robust induction of GFP | – | GFP induction (LNCaP cells; LNCaP cells, only in the presence of SAR-adaptor PSMA-USC76-chVH-G4S-ULBP2-S3 (SEQ ID NO: 23114)): induction of GFP
